Results taken from publication PMC3526787, “Structures of Lysenin Reveal a Shared Evolutionary Origin for Pore-Forming Proteins And Its Mode of Sphingomyelin Recognition” (Structure(London, England:1993), 2012).

Target: the molecule itself
Assay: 2D electron crystallography; lysenin in a lipid bilayer (liposomes containing SM); 2D crystals, trigonal array with space group p3, projection map at 14 Å

B1: lysenin (natural protein)
chain: MSAKAAEGYEQIEVDVVAVWKEGYVYENRGSTSVDQKITITKGMKNVNSETRTVTATHSIGSTISTGDAFEIGSVEVSYSHSHEESQVSMTETEVYESKVIEHTITIPPTSKFTRWQLNADVGGADIEYMYLIDEVTPIGGTQSIPQVITSRAKIIVGRQIILGKTEIRIKHAERKEYMTVVSRKSWPAATLGHSKLFKFVLYEDWGGFRIKTLNTMYSGYEYAYSSDQGGIYFDQGTDNPKQRWAINKSLPLRHGDVVTFMNKYFTRSGLCYDDGPATNVYCLDKREDKWILEVVG
notes: A thrombin cleavage site and six histidines follow the C terminus (printed as …); also called WT lysenin; native lysenin; source: E. coli BL21, purified (Ni-NTA IMAC, SEC)
binding result: binds
